For one molecule, Kd results are on record in publication PMC9753469.

In the assay the target is MBP-KRAB (ZNF93 KRAB E35R), P35789. Kind of assay: SPR. The following applies: chain shown with the change; MBP-KRAB immobilized on the chip; KAP1 RBCC as mobile phase.
MBP-KRAB (ZNF93 KRAB E35R), P35789, sequence (P35789 2-71 E35R): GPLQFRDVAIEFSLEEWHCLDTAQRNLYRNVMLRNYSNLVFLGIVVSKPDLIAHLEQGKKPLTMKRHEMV

B1: m11; m9 KAP1:R311E; ZNF93 KRAB:E35R (protein)
chain: MAASAAAASAAAASAASGSPGPGEGSAGGEKRSTAPSAAASASASAAASSPAGGGAEALELLEHCGVCRERLRPEREPRLLPCLHSACSACLGPAAPAAANSSGDGGAAGDGTVVDCPVCKQQCFSKDIVENYFMRDSGSKAATDAQDANQCCTSCEDNAPATSYCVECSEPLCETCVEAHQRVKYTKDHTVRSTGPAKSRDGERTVYCNVHKHEPLVLFCESCDTLTCRDCQLNAHKDHQYQFLEDAVRNQRKLLASLVKRLGDKHATLQKSTKEVRSSIRQVSDVQKRVQVDVKMAILQIMKELNKRGEVLVNDAQKVTEGQQERLERQHWTMTKIQKHQEHILRFASWALESDNNTALLLSKKLIYFQLHRALKMIVDPVEPHGEMKFQWDLNAWTKSAEAFGKIVAERPGTNSTGPAPMAPPRAPGPLSKQGSGSSQPMEVQEGYGFGSGDDPYSSAEPHVSGVKRSRSGEGEVSGLMRKVPRVSLERLDLDLTADSQPPVFKVFPGSTTEDYNLIVIERGAAAAATGQPGTAPAGTPGAPPLAGMAIVKEEETEAAIGAPPTATEGPETKPVLMALAEGPGAEGPRLASPSGSTSSGLEVVAPEGTSAPGGGPGTLDDSATICRVCQKPGDLVMCNQCEFCFHLDCHLPALQDVPGEEWSCSLCHVLPDLKEEDGSLSLDGADSTGVVAKLSPANQRKCERVLLALFCHEPCRPLHQLATDSTFSLDQPGGTLDLTLIRARLQEKLSPPYSSPQEFAQDVGRMFKQFNKLTEDKADVQSIIGLQRFFETRMNEAFGDTKFSAVLVEPPPMSLPGAGLSSQELSGGPGDGP
Broadly, the Kd is the free concentration of one partner at which half of the binding sites on the other are occupied at equilibrium, for simple one-to-one binding. Lower therefore signals tighter binding. Regarding B1, the Kd stood at 71.8 nM.
